Reference: patent publication US20140248360A1, “NANOPARTICLE TUMOUR VACCINES” (MIDATECH LIMITED, priority 2011, published 2014)

Experiments:
[1] = Aggregation and solubility of nanoparticle preparations; format: physicochemical; details: for NP formed in repeat production: 75% methanol not 95% in the synthesis stage
Experimental: Samples were bench spun the supernatant removed and the dark pellet dissolved in 2 ml water, and then transferred to a 10 kDa vivaspin for a total of 4 times 2 ml water washes each of 8 min at 5 Krpm. Nanoparticles (NPs) were removed from the vivaspins and made up to 500 μl with water, they were then subjected to 15 Krpm bench spin to remove any large aggregates.
NP's 2-5 were produced by a variation using 75% methanol not 95% in the synthesis stage.

[2] = target: SIINFEKL:K^b complex (SIINFEKL complexed to H-2K^b) on LK^b cells (murine) (UniProt P01901); test: cell-based or functional assay
Sequence of UniProt P01901 (P01901 22-369 limits assumed, one chain of several): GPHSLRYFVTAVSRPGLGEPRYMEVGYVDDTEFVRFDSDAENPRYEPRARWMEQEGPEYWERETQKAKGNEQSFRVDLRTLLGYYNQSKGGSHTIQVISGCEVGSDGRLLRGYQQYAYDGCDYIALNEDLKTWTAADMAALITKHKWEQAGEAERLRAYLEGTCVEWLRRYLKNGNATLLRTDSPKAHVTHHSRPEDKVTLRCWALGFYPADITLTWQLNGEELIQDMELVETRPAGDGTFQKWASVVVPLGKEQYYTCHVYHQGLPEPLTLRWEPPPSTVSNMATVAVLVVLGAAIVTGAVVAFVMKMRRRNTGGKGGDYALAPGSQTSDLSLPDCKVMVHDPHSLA

Substance	solubility of NP aggregates in NaOH ([1]; 300 mM NaOH)	NP formed in repeat production [1]	aggregation of NP after synthesis ([1]; first production, after 15 Krpm bench spin)	solubility of NP aggregates ([1]; water, 10% acetic acid, PBS, DMSO or DMF)	β-galactosidase measured using a luminescent substrate (B3Z activation); limit of detection as SIINFEKL pulse concentration [2]
NP 3: gold nanoparticle, GlcC2 corona, peptide ligand FLSIINFEKL-N-(CH2)2-SH	total NP solubilisation	formed aggregates	large near complete aggregation	not soluble	
T cell receptor of the SIINFEKL:Kb-specific T hybridoma B3Z (TCR)					5 ng/mL
NP 2: gold nanoparticle, GlcC2 corona, peptide ligand SIINFEKL-N-(CH2)2-SH		‘normal’ NP			
